This note sets out measurements from paper PMC4831154, “Expression and characterization of a novel 1,3-regioselective cold-adapted lipase from Rhizomucor endophyticus suitable for biodiesel synthesis” (Biotechnology for Biofuels, 2016).

Test in all cases: purified protein
Holding throughout (type): biochemical, Mucor endophyticus
Holding throughout (conditions): 50 mM citrate buffer pH 6.0, 40 °C, 5 min

Substrate in data set [1]: CCCCCCCC(=O)Oc1ccc([N+](=O)[O-])cc1
Substrate in data set [2]: CCCCCCCCCCCC(=O)Oc1ccc([N+](=O)[O-])cc1
Substrate in data set [3]: CCCCCCCCCCCCCC(=O)Oc1ccc([N+](=O)[O-])cc1

B1: ReLipA (Mucor endophyticus) (protein)
chain: PAAGTKGETSSAAAPHNNATMTASSYILPPIIPSRTKPGNPAFKGDVNAEAESIAKNKKWYEDHGGNFKNITKRDTETVGGMTMDLPANAPPVTTSTGSGVVTASAAQIANFKLYAGIASTAYCRGVVPLGSWTCNNCLKYVPDGKLLVTFSSLLADTNGFVLRSDSQKTIHLVFRGTNSIRSAITDLIFDLATYSPVSGAKVHRGFLASYKEVVNTYFPVVQAQLTAYPSYKVVISGHSLGGAQALLAGMDLYQRDKRLSPSNLSIYTVGCPRVGNPAFAYYVDSTGIPFSRSVNDRDIVPHVPPQAFGYLHPGVEAWDISSRVQICTANIETNKCSNSIVPFTSFVDHLTYYGINEGLCL
notes: ORF 1167 bp; SP-Sepharose purified
As for B1, the Michaelis-Menten constant (Km) in the data set “purified protein [1]” was 2300 ± 210 µM; in the data set “purified protein [2]”, 640 ± 60 µM; in the data set “purified protein [3]” it was 100 ± 10 µM. Also, the kcat/Km in “purified protein [1]” stood at 387 M⁻¹ s⁻¹; in “purified protein [2]” it was 416 M⁻¹ s⁻¹; in “purified protein [3]”, 1790 M⁻¹ s⁻¹.
